Values quoted from earlier work as cited in patent US9394339B2, “Stabilized formulations of peptides and proteins protecting against non-enzymatic degradation” (Lyotropic Therapeutics, Inc., priority 2007, dated 2016).
Read-outs that look alike come from different tables or passages of the source.

Details: for T1/2 (half-life, deamidation): buffer
[1] = aqueous solution, pH 7.4, 37° C., Tris-HCl buffer

Molecule	T1/10 (time to 10% degradation by deamidation) [1] [days]	T1/2 (half-life, deamidation) (pH 7.4) [days]	T1/10 (time to 10% degradation by deamidation) (pH 7.4) [days]
Myeloperoxidase (1MHL): human protein (protein, UniProt P05164 165-745, looked up) Myeloperoxidase: VTCPEQDKYRTITGMCNNRRSPTLGASNRAFVRWLPAEYEDGFSLPYGWTPGVKRNGFPVALARAVSNEIVRFPTDQLTPDQERSLMFMQWGQLLDHDLDFTPEPAARASFVTGVNCETSCVQQPPCFPLKIPPNDPRIKNQADCIPFFRSCPACPGSNITIRNQINALTSFVDASMVYGSEEPLARNLRNMSNQLGLLAVNQRFQDNGRALLPFDNLHDDPCLLTNRSARIPCFLAGDTRSSEMPELTSMHTLLLREHNRLATELKSLNPRWDGERLYQEARKIVGAMVQIITYRDYLPLVLGPTAMRKYLPTYRSYNDSVDPRIANVFTNAFRYGHTLIQPFMFRLDNRYQPMEPNPRVPLSRVFFASWRVVLEGGIDPILRGLMATPAKLNRQNQIAVDEIRERLFEQVMRIGLDLPALNMQRSRDHGLPGYNAWRRFCGLPQPETVGQLGTVLRNLKLARKLMEQYGTPNNIDIWMGGVSEPLKRKGRVGPLLACIIGTQFRKLRDGDRFWWENEGVFSMQQRQALAQISLPRIICDNTGITTVSKNNIFMSNSYPRDFVNCSTLPALNLASWREAS	2.4		
Inositol monophosphatase (1IMB): human protein (protein, UniProt P29218 1-277, looked up) Inositol monophosphatase 1: MADPWQECMDYAVTLARQAGEVVCEAIKNEMNVMLKSSPVDLVTATDQKVEKMLISSIKEKYPSHSFIGEESVAAGEKSILTDNPTWIIDPIDGTTNFVHRFPFVAVSIGFAVNKKIEFGVVYSCVEGKMYTARKGKGAFCNGQKLQVSQQEDITKSLLVTELGSSRTPETVRMVLSNMEKLFCIPVHGIRSVGTAAVNMCLVATGGADAYYEMGIHCWDVAGAGIIVTEAGGVLMDVTGGPFDLMSRRVIAANNRILAERIAKEIQVIPLQRDDED		15	2.3
Interleukin-16 (1I16): human protein (protein, UniProt Q14005 1212-1332, looked up) Interleukin-16: SAASASAASDVSVESTAEATVCTVTLEKMSAGLGFSLEGGKGSLHGDKPLTINRIFKGAASEQSETVQPGDEILQLGGTAMQGLTRFEAWNIIKALPDGPVTIVIRRKSLQSKETTAAGDS	2.6		
Pepsinogen (1HTR): human protein (protein, UniProt P20142 17-388, looked up, pro-form) pro-form: AVVKVPLKKFKSIRETMKEKGLLGEFLRTHKYDPAWKYRFGDLSVTYEPMAYMDAAYFGEISIGTPPQNFLVLFDTGSSNLWVPSVYCQSQACTSHSRFNPSESSTYSTNGQTFSLQYGSGSLTGFFGYDTLTVQSIQVPNQEFGLSENEPGTNFVYAQFDGIMGLAYPALSVDEATTAMQGMVQEGALTSPVFSVYLSNQQGSSGGAVVFGGVDSSLYTGQIYWAPVTQELYWQIGIEEFLIGGQASGWCSEGCQAIVDTGTSLLTVPQQYMSALLQATGAQEDEYGQFLVNCNSIQNLPSLTFIINGVEFPLPPSSYILSNNGYCTVGVEPTYLSSQNGQPLWILGDVFLRSYYSVYDLGNNRVGFATAA	3.0		
S-adenosylhomocysteine hydrolase (1A7A): human protein (protein, UniProt P23526 2-432, looked up) Adenosylhomocysteinase: SDKLPYKVADIGLAAWGRKALDIAENEMPGLMRMRERYSASKPLKGARIAGCLHMTVETAVLIETLVTLGAEVQWSSCNIFSTQDHAAAAIAKAGIPVYAWKGETDEEYLWCIEQTLYFKDGPLNMILDDGGDLTNLIHTKYPQLLPGIRGISEETTTGVHNLYKMMANGILKVPAINVNDSVTKSKFDNLYGCRESLIDGIKRATDVMIAGKVAVVAGYGDVGKGCAQALRGFGARVIITEIDPINALQAAMEGYEVTTMDEACQEGNIFVTTTGCIDIILGRHFEQMKDDAIVCNIGHFDVEIDVKWLNENAVEKVNIKPQVDRYRLKNGRRIILLAEGRLVNLGCAMGHPSFVMSNSFTNQVMAQIELWTHPDKYPVGVHFLPKKLDEAVAEAHLGKLNVKLTKLTEKQAQYLGMSCDGPFKPDHYRY	4.3		
Farnesyltransferase (1EZF): human protein (protein, UniProt P37268 1-417, looked up) Squalene synthase: MEFVKCLGHPEEFYNLVRFRIGGKRKVMPKMDQDSLSSSLKTCYKYLNQTSRSFAAVIQALDGEMRNAVCIFYLVLRALDTLEDDMTISVEKKVPLLHNFHSFLYQPDWRFMESKEKDRQVLEDFPTISLEFRNLAEKYQTVIADICRRMGIGMAEFLDKHVTSEQEWDKYCHYVAGLVGIGLSRLFSASEFEDPLVGEDTERANSMGLFLQKTNIIRDYLEDQQGGREFWPQEVWSRYVKKLGDFAKPENIDLAVQCLNELITNALHHIPDVITYLSRLRNQSVFNFCAIPQVMAIATLAACYNNQQVFKGAVKIRKGQAVTLMMDATNMPAVKAIIYQYMEEIYHRIPDSDPSSSKTRQIISTIRTQNLPNCQLISRSHYSPIYLSFVMLLAALSWQYLTTLSQVTEDYVQTGEH	4.0		
Dihydrofolate reductase (1DRF): human protein (protein, UniProt P00374 1-187, looked up) Dihydrofolate reductase: MVGSLNCIVAVSQNMGIGKNGDLPWPPLRNEFRYFQRMTTTSSVEGKQNLVIMGKKTWFSIPEKNRPLKGRINLVLSRELKEPPQGAHFLSRSLDDALKLTEQPELANKVDMVWIVGGSSVYKEAMNHPGHLKLFVTRIMQDFESDTFFPEIDLEKYKLLPEYPGVLSDVQEEKGIKYKFEVYEKND		25	3.8
Karyopherin 2 (1QBK): human protein (protein, UniProt Q92973 1-898, looked up) Transportin-1: MVWDRQTKMEYEWKPDEQGLQQILQLLKESQSPDTTIQRTVQQKLEQLNQYPDFNNYLIFVLTKLKSEDEPTRSLSGLILKNNVKAHFQNFPNGVTDFIKSECLNNIGDSSPLIRATVGILITTIASKGELQNWPDLLPKLCSLLDSEDYNTCEGAFGALQKICEDSAEILDSDVLDRPLNIMIPKFLQFFKHSSPKIRSHAVACVNQFIISRTQALMLHIDSFIENLFALAGDEEPEVRKNVCRALVMLLEVRMDRLLPHMHNIVEYMLQRTQDQDENVALEACEFWLTLAEQPICKDVLVRHLPKLIPVLVNGMKYSDIDIILLKGDVEEDETIPDSEQDIRPRFHRSRTVAQQHDEDGIEEEDDDDDEIDDDDTISDWNLRKCSAAALDVLANVYRDELLPHILPLLKELLFHHEWVVKESGILVLGAIAEGCMQGMIPYLPELIPHLIQCLSDKKALVRSITCWTLSRYAHWVVSQPPDTYLKPLMTELLKRILDSNKRVQEAACSAFATLEEEACTELVPYLAYILDTLVFAFSKYQHKNLLILYDAIGTLADSVGHHLNKPEYIQMLMPPLIQKWNMLKDEDKDLFPLLECLSSVATALQSGFLPYCEPVYQRCVNLVQKTLAQAMLNNAQPDQYEAPDKDFMIVALDLLSGLAEGLGGNIEQLVARSNILTLMYQCMQDKMPEVRQSSFALLGDLTKACFQHVKPCIADFMPILGTNLNPEFISVCNNATWAIGEISIQMGIEMQPYIPMVLHQLVEIINRPNTPKTLLENTAITIGRLGYVCPQEVAPMLQQFIRPWCTSLRNIRDNEEKDSAFRGICTMISVNPSGVIQDFIFFCDAVASWINPKDDLRDMFCKILHGFKNQVGDENWRRFSDQFPLPLKERLAAFYGV	0.81		
Catalase (1QQW): human protein (protein, UniProt P04040 2-527, looked up) Catalase: ADSRDPASDQMQHWKEQRAAQKADVLTTGAGNPVGDKLNVITVGPRGPLLVQDVVFTDEMAHFDRERIPERVVHAKGAGAFGYFEVTHDITKYSKAKVFEHIGKKTPIAVRFSTVAGESGSADTVRDPRGFAVKFYTEDGNWDLVGNNTPIFFIRDPILFPSFIHSQKRNPQTHLKDPDMVWDFWSLRPESLHQVSFLFSDRGIPDGHRHMNGYGSHTFKLVNANGEAVYCKFHYKTDQGIKNLSVEDAARLSQEDPDYGIRDLFNAIATGKYPSWTFYIQVMTFNQAETFPFNPFDLTKVWPHKDYPLIPVGKLVLNRNPVNYFAEVEQIAFDPSNMPPGIEASPDKMLQGRLFAYPDTHRHRLGPNYLHIPVNCPYRARVANYQRDGPMCMQDNQGGAPNYYPNSFGAPEQQPSALEHSIQYSGEVRRFNTANDDNVTQVRAFYVNVLNEEQRKRLCENIAGHLKDAQIFIQKKAVKNFTEVHPDYGSHIQALLDKYNAEKPKNAIHTFVQSGSHLAAREKANL	3.8		
Fructose bisphosphate aldolase (4ALD): human protein (protein, UniProt P04075 2-364, looked up) Fructose-bisphosphate …: PYQYPALTPEQKKELSDIAHRIVAPGKGILAADESTGSIAKRLQSIGTENTEENRRFYRQLLLTADDRVNPCIGGVILFHETLYQKADDGRPFPQVIKSKGGVVGIKVDKGVVPLAGTNGETTTQGLDGLSERCAQYKKDGADFAKWRCVLKIGEHTPSALAIMENANVLARYASICQQNGIVPIVEPEILPDGDHDLKRCQYVTEKVLAAVYKALSDHHIYLEGTLLKPNMVTPGHACTQKFSHEEIAMATVTALRRTVPPAVTGITFLSGGQSEEEASINLNAINKCPLLKPWALTFSYGRALQASALKAWGGKKENLKAAQEEYVKRALANSLACQGKYTPSGQAGAAASESLFVSNHAY		7.6	1.2
Acetylcholinesterase (1F8U): human protein (protein, UniProt P22303 32-614, looked up) Acetylcholinesterase: EGREDAELLVTVRGGRLRGIRLKTPGGPVSAFLGIPFAEPPMGPRRFLPPEPKQPWSGVVDATTFQSVCYQYVDTLYPGFEGTEMWNPNRELSEDCLYLNVWTPYPRPTSPTPVLVWIYGGGFYSGASSLDVYDGRFLVQAERTVLVSMNYRVGAFGFLALPGSREAPGNVGLLDQRLALQWVQENVAAFGGDPTSVTLFGESAGAASVGMHLLSPPSRGLFHRAVLQSGAPNGPWATVGMGEARRRATQLAHLVGCPPGGTGGNDTELVACLRTRPAQVLVNHEWHVLPQESVFRFSFVPVVDGDFLSDTPEALINAGDFHGLQVLVGVVKDEGSYFLVYGAPGFSKDNESLISRAEFLAGVRVGVPQVSDLAAEAVVLHYTDWLHPEDPARLREALSDVVGDHNVVCPVAQLAGRLAAQGARVYAYVFEHRASTLSWPLWMGVPHGYEIEFIFGIPLDPSRNYTAEEKIFAQRLMRYWANFARTGDPNEPRDPKAPQWPPYTAGAQQYVSLDLRPLEVRRGLRAQACAFWNRFLPKLLSATDTLDEAERQWKAEFHRWSSYMVHWKNQFDHYSKQDRCSDL	3.5		
Bone morphogenetic protein 7 (1BMP): human protein (protein, UniProt P18075 293-431, looked up) Bone morphogenetic protein 7: STGSKQRSQNRSKTPKNQEALRMANVAENSSSDQRQACKKHELYVSFRDLGWQDWIIAPEGYAAYYCEGECAFPLNSYMNATNHAIVQTLVHFINPETVPKPCCAPTQLNAISVLYFDDSSNVILKKYRNMVVRACGCH	3.2		
